# In patent US20190151483A1, “METHODS OF MAKING 18F-LABELED PRECURSORS AND PEPTIDES, LABELED C-MET BINDING PEPTIDES, AND METHODS OF USE THEREOF” (The United States of America, as Represented by the …, priority 2016, published 2019):
# Bridge positions count the residues as written; N and C are the ends. Ends that are not written are not given here.
# B1: [^18F]albumin: albumin radiolabeled by conjugating Compound 3 to pendant amine groups (protein, UniProt P02770 25-608, looked up)
# Albumin: EAHKSEIAHRFKDLGEQHFKGLVLIAFSQYLQKCPYEEHIKLVQEVTDFAKTCVADENAENCDKSIHTLFGDKLCAIPKLRDNYGELADCCAKQEPERNECFLQHKDDNPNLPPFQRPEAEAMCTSFQENPTSFLGHYLHEVARRHPYFYAPELLYYAEKYNEVLTQCCTESDKAACLTPKLDAVKEKALVAAVRQRMKCSSMQRFGERAFKAWAVARMSQRFPNAEFAEITKLATDVTKINKECCHGDLLECADDRAELAKYMCENQATISSKLQACCDKPVLQKSQCLAEIEHDNIPADLPSIAADFVEDKEVCKNYAEAKDVFLGTFLYEYSRRHPDYSVSLLLRLAKKYEATLEKCCAEGDPPACYGTVLAEFQPLVEEPKNLVKTNCELYEKLGEYGFQNAVLVRYTQKAPQVSTPTLVEAARNLGRVGTKCCTLPEAQRLPCVEDYLSAILNRLCVLHEKTPVSEKVTKCCSGSLVERRPCFSALTVDETYVPKEFKAETFTFHSDICTLPDKEKQIKKQTALAELVKHKPKATEDQLKTVMGDFAQFVDKCCKAADKDNCFATEGPNLVARSKEALA
# modifications: 18F-labeled via Compound 3
# notes: albumin radiolabeled by conjugating Compound 3 to pendant amine groups
# How the values were obtained:
# [1] = test system: human prostate cancer cells with known high PSMA expression; assay: In vivo biodistribution and PET images in xenograft mouse models of high-PSMA prostate tumor cell line; details: data not shown
# c-MET receptors = target: T1, c-MET receptors (Homo sapiens, UniProt P08581); assay: In vitro saturation binding assay with MKN-45, SNU-16 or U87-MG cells
# T1 construct: endogenous in cells; host or cells: MKN-45, SNU-16 or U87-MG cells
# T1 sequence (P08581 25-1390): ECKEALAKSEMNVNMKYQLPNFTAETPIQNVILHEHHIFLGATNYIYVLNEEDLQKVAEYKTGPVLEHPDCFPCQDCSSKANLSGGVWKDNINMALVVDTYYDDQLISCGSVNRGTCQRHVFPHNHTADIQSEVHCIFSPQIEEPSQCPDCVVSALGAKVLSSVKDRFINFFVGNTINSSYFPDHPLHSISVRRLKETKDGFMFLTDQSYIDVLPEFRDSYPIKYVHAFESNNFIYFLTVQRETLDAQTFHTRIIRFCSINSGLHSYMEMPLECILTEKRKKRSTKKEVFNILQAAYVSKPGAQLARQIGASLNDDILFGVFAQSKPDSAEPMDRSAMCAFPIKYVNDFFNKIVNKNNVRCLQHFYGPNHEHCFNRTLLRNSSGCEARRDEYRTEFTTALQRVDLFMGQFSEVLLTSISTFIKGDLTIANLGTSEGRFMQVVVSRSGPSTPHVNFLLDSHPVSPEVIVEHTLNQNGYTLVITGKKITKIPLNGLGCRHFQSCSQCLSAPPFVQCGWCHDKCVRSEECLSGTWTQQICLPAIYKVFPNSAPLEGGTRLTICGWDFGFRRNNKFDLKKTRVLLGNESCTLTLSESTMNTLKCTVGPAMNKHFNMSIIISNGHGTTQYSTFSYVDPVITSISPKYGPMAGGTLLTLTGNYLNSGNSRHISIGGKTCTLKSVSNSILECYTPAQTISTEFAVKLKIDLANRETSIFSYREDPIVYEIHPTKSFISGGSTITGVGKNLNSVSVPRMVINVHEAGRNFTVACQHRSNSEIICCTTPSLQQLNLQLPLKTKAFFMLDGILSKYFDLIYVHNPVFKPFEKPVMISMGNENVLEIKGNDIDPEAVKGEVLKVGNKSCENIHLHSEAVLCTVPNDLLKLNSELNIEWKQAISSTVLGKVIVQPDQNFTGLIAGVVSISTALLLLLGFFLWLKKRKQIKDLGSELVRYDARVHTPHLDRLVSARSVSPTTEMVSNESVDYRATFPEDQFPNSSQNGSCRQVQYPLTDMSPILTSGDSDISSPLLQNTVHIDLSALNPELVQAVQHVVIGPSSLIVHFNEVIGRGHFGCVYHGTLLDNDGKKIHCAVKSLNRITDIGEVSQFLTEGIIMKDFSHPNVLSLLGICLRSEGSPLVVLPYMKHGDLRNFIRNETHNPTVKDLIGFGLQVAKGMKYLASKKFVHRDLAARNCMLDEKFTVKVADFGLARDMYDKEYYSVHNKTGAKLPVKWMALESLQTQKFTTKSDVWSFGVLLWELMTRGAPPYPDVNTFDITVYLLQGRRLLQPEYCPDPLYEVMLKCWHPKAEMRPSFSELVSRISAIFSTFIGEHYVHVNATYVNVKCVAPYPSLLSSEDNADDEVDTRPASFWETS
# Experimental: In vitro saturation assays were performed to determine the binding affinity of Compound 1 for c-MET receptors. Increasing concentrations of Compound 1 were incubated with MKN-45, SNU-16 or U87-MG cells. Non-specific binding was determined in the presence of an unlabeled Met peptide (10^−5 M). Bound peptide was separated from free peptide and the radioactive content was determined. Data was analyzed using a one site binding hyperbola. […] The binding constant was determined to be 3.9 nM. In addition, the estimated Met expression levels (2.4×10^6 receptors per cell) were consistent with known expression in MKN-45, SNU-16, and U87-MG cells. […] (data not shown)
# [2] = test system: SNU-16 (moderate Met) xenografts; format: in vivo, mouse
# [3] = test system: U87-MG (low Met) xenografts; format: in vivo, mouse
# [4] = test system: MKN-45 (high Met) xenografts
# [5] = reported labeled albumin; cited from earlier work
molecule,measurement,setting,value
O=C(O)CC[C@H](NC(=O)N[C@@H](CCCCNC(=O)c1ccc([18F])nc1)C(=O)O)C(=O)O [[^18F]DCFPyL],biodistributions and PET images vs previously reported results,[1],comparable with previously reported results
"Compound 1: 18F-labeled c-Met peptide; cyclic peptide of SEQ ID NO: 1 reacted with [18F]fluoronicotinic acid-2,3,5,6-tetrafluorophenyl ester (AGSCYCSGPPRFECWCYETEGTGGGK; disulfide 6-14, 4-16; also: [18F]fluoronicotinoyl conjugated via tetrafluorophenyl ester, site not given here)",specific binding to Met,"c-MET receptors; MKN-45 cells, non-specific binding with unlabeled Met peptide 10^−5 M",> 90%
same,Kd,"c-MET receptors; MKN-45 cells, saturation assay, one site binding hyperbola, read-out: binding constant",3.9 nM
same,ability to distinguish c-MET concentrations,"c-MET receptors; SNU-16 and U87-MG cell lines, data not shown",can distinguish c-MET concentrations
same,estimated Met expression levels,c-MET receptors; from saturation binding,2.4×10^6 receptors per cell
same,PET tumor discernibility,[2]; SNU-16 tumors,discernable
same,Tumor:Muscle ratio over time course,"[2]; mouse, in vivo",7:1-18:1
same,fold decrease of T:M vs MKN-45 T:M,"[2]; mouse, in vivo",2-60 fold
same,fold decrease of tumor uptake vs MKN-45 tumors,"[2]; mouse, in vivo",2-6 fold
same,PET tumor discernibility,[3]; U87-MG tumors,more difficult to distinguish
same,Tumor:Muscle ratio over time course,"[3]; mouse, in vivo",3:1-5:1
same,fold decrease of tumor uptake vs MKN-45 tumors,"[3]; mouse, in vivo",3-40 fold
same,PET visualization,"[4]; MKN xenografts, 30 to 120 min post-injection","tumors, kidneys and bladder could be visualized"
same,PET tumor discernibility,"[4]; MKN-45 and SNU-16 xenografts, images at 30, 60, 120 min",discerned as early as 30 min
same,decrease of T:M ratio on blocking with unlabeled Met peptide,"[4]; MKN-45 xenografts, compared to unblocked",65%
same,decrease of tumor uptake from 30 to 120 min,"[4]; mouse, in vivo",approximately 37%
same,tumor retention and non-target clearance,"[4]; mouse, in vivo",highly retained in MKN-45 tumors (high Met expression) and rapidly cleared from non-target tissue
B1,blood pool imaging property,[5],excellent blood pool imaging property
